# How the values were obtained:
# [1] = test system: FERM domain of human SNX27 (hSNX27FERM); assay: ITC, hSNX27FERM titrated into mSNX1 proteins; assay type: binding; settings: 25°C
# Protocol: Human SNX1 and SNX2 peptide sequences were synthesized by Genscript (USA). To obtain the peptide stock solutions at neutral pH, 100 mM Tris-HCl, pH 10.6 was used to dissolve the peptide to a final concentration of 8 mM. The peptides were SNX1_35-51 […], SNX135-51(D45K) […], SNX1_75-92 […], SNX2_16-33 […], SNX2_16-33(DLF/SSS) […], and SNX2_62-82 […].
# All microcalorimetry experiments were conducted at 25°C using a PEAQ ITC (Malvern, UK) in 50 mM HEPES (pH 7.5), 200 mM NaCl, 5% glycerol, and 1 mM β-ME (ITC buffer). All proteins were purified by SEC using the same buffer prior to ITC experiments to avoid buffer mismatches. To measure binding of SNX27 to SNX1 proteins, 800 μM of hSNX27FERM was titrated into 20 μM of GST-mSNX1_1-139 or His-SNX1FL. For the binding of SNX1 and SNX2 peptides to SNX27, peptides were diluted 10-fold to 800 μM in ITC buffer peptides and titrated into 20 μM SNX27FL proteins containing the same 1:10 ratio of peptide buffer (100 mM Tris-HCl, pH 10.6). The competitive ITC experiments were carried out by titrating 800 μM SNX1_75-92 peptides into 20 μM proteins with 2-fold molar excess SNX2_16-33 peptide preincubated with SNX27 on ice for an hour. For ITC experiment using SNX1_75-92 against hSNX27 wild-type and single-site mutants, 600 μM SNX1_75-92 peptide was titrated into 20 μM hSNX27 proteins.
# The ITC experiments were conducted with 1 injection of 0.4 μL followed by a series of 12 injections of 3.2 μL each with 180-second intervals and a stirring speed of 850 rpm. The heat exchange of interactions was obtained through integrating the observed peaks and background correction by subtracting the heats of dilution. Data were analyzed with Malvern software package by fitting and normalized data to a single-site binding model, yielding the thermodynamic parameters Kd, ΔH, ΔG, and −TΔS for all binding experiments. The stoichiometry was refined initially, and if the value was close to 1, then N was set to exactly 1.0 for calculation. All experiments were performed at least twice to guarantee reproducibility of the data.
# SNX27 = assay: GFP trap co-immunoprecipitation of GFP-SNX1/SNX2 constructs from HEK-293T, quantitative western blot: SNX27; assay type: binding; settings: Fig 3F, S2B Fig; double aDLF mutants in HEK293T, GFP trap
# Protocol: HeLa and HEK-293T cell lines were sourced from ATCC. Authentication was from the ATCC. Cells were grown in DMEM (Sigma-Aldrich) supplemented with 10% (v/v) FCS (Sigma-Aldrich) and penicillin/streptomycin (Gibco, USA) and grown under standard conditions. FuGENE HD (Promega, USA) was used for transient transfection of DNA according to the manufacturer’s instructions. Cycloheximide was used to prevent up-regulation of protein synthesis. In this case, cycloheximide (C7698; Sigma-Aldrich) at 10 μg/ml was added to the cells 48 hours after FuGENE transfection for the indicated time points. For the generation of CRISPR-Cas9 SNX27 knockout HeLa cells, HeLa cells were transfected with pX330 plasmid coding for the gRNA against the gene of interest together with a puromycin resistance–expressing plasmid. Cells were then subjected to puromycin selection for 24 hours. The pooled population of cells was subjected to lysis and western blotting to confirm the knockout. The VPS35 knockout clonal cell line used in this study was characterized previously. […]
# For western blotting, cells were lysed in PBS with 1% (v/v) Triton X-100 and protease inhibitor cocktail. The protein concentration was determined with a BCA assay kit (Thermo Fisher Scientific, USA), and equal amounts were resolved on NuPAGE 4% to 12% precast gels (Invitrogen, USA). […]
# [2] = pH 7.5, 800 μM hSNX27FERM into 20 μM mSNX1 protein
Molecule,"ΔG [1, 2]","ΔH [1, 2]","SNX27 binding, in words (SNX27)","Kd ([1]; 50 mM HEPES pH 7.5, 200 mM NaCl, 5% glycerol, 1 mM β-ME, 800 μM hSNX27FERM titrated into 20 μM mSNX1 protein, single-site fit, mean of at least 2 experiments)","-TΔS [1, 2]"
"mSNX1_1-139: recombinant truncated mSNX1 containing residues 1 to 139, GST fusion protein (protein, left off: GST, N-terminal, kept, recombinant truncated mSNX1 containing residues 1 to 139, GST fusion protein) MASGGGGCSASERLPPPFPGMDPESEGAAGASEPEAGDSDTEGEDIFTGAAAATKPQSPKKTTSLFPIKNGSKENGIHEDQDQEPQDLFADATVELSLDSTQNNQKTMPGKTLTSHSPQEATNSPKPQPSYEELEEEEQ",-6.02 ± 0.01 kcal/mol,-6.93 ± 0.01 kcal/mol,–,–,–
"GFP-SNX2(D26K,D72K): mutant targeting both aDLF motifs in SNX2 (protein, UniProt O60749 1-519, looked up, variant D26K D72K, GFP tag) Sorting nexin-2: MAAEREPPPLGDGKPTDFEDLEDGEKLFTSTVSTLESSPSSPEPASLPAEDISANSNGPKPTEVVLDDDREKLFAEATEEVSLDSPEREPILSSEPSPAVTPVTPTTLIAPRIESKSMSAPVIFDRSREEIEEEANGDIFDIEIGVSDPEKVGDGMNAYMAYRVTTKTSLSMFSKSEFSVKRRFSDFLGLHSKLASKYLHVGYIVPPAPEKSIVGMTKVKVGKEDSSSTEFVEKRRAALERYLQRTVKHPTLLQDPDLRQFLESSELPRAVNTQALSGAGILRMVNKAADAVNKMTIKMNESDAWFEEKQQQFENLDQQLRKLHVSVEALVCHRKELSANTAAFAKSAAMLGNSEDHTALSRALSQLAEVEEKIDQLHQEQAFADFYMFSELLSDYIRLIAAVKGVFDHRMKCWQKWEDAQITLLKKREAEAKMMVANKPDKIQQAKNEIREWEAKVQQGERDFEQISKTIRKEVGRFEKERVKDFKTVIIKYLESLVQTQQQLIKYWEAFLPEAKAIA",–,–,near undetectable levels,–,–
"mSNX1FL: recombinant full-length mouse SNX1 with an amino-terminal His-tag (protein, left off: His-tag, N-terminal, kept) MASGGGGCSASERLPPPFPGMDPESEGAAGASEPEAGDSDTEGEDIFTGAAAATKPQSPKKTTSLFPIKNGSKENGIHEDQDQEPQDLFADATVELSLDSTQNNQKTMPGKTLTSHSPQEATNSPKPQPSYEELEEEEQEDQFDLTVGITDPEKIGDGMNAYVAYKVTTQTSLPMFRSRQFAVKRRFSDFLGLYEKLSEKHSQNGFIVPPPPEKSLIGMTKVKVGKEDSSSAEFLEKRRAALERYLQRIVNHPTMLQDPDVREFLEKEELPRAVGTQALSGAGLLKMFNKATDAVSKMTIKMNESDIWFEEKLQEVECEEQRLRKLHAVVETLVNHRKELALNTALFAKSLAMLGSSEDNTALSRALSQLAEVEEKIEQLHQEQANNDSFLLAELLSDYIRLLAIVRAAFDQRMKTWQRWQDAQATLQKKRESEARLLWANKPDKLQQAKDEITEWESRVTQYERDFERISTVVRKEVTRFEKEKSKDFKNHVMKYLETLLHSQQQLAKYWEAFLPEAKAIS",-5.99 ± 0.02 kcal/mol,-6.23 ± 3.11 kcal/mol,–,41 µM,0.24 ± 3.10 kcal/mol

# Source: PMC9038204, “SNX27–Retromer directly binds ESCPE-1 to transfer cargo proteins during endosomal recycling” (PLoS Biology, 2022)
